1 substance from article PMC10683481 can be followed below.

The assay has as its target GST-PLIED-M1 (E. coli) (UniProt P0ABQ4).

With “Recombinant human MDM2 (17-125) (from UniProt Q00987 17-125) (domain or fragment)”, the acetylation yield of MDM2 K51 (LC-MS/MS) with MDM2 (1.4 μM), PLIED-M1 (4 μM), TMP-BAHA 1 (10 μM) and acetyl donor 2 (100 μM), 37 °C, 5 h amounted to 70%.
